Test results reported in patent publication US7026125, “Heterodimers of retinoid X receptors (RXRS) and other steroid hormone receptors” (Ligand Pharmaceuticals).

Assays:
TRβ/RXRα heterodimer = TRβ/RXRα heterodimer (UniProt P10828;P19793 P10828:1-461,P19793:1-462); test: EMSA; upshifted complex; details: label: 32P
Description: (§1) (a) In vitro synthesized TRα, TRβ, RARα, RARβ, RARγ and TRα2 receptor proteins were preincubated either with (+) or without (−) equal amount of in vitro synthesized RXRα protein at room temperature for 10 minutes. Following this preincubation, the reaction mixtures were incubated with ^32p-labelled palindromic TRE (for 1 sequence see FIG. 2a) and analyzed by gel retardation assay as described in Experimental Procedures. […] As a control, equal amounts of TRα and RARα proteins were also mixed and incubated with labelled TRE.
(§2) In vitro translated receptor protein (1 to 5 μl depending on the translation efficiency) was incubated with the ^32P-labeled oligonucleotides in a 20-μl reaction mixture containing 10 mM hepes buffer, pH 7.9, 50 mM KCl, 1 mM DTT, 2.5 mM MgCl, 10% glycerol, and 1 μg of poly(dI-dC) at 25° C. for 20 minutes. In general, relative low receptor concentration was used to obtain the clear effect of heterodimer formation. The reaction mixture was then loaded on a 5% nondenaturing ployacrylamide gel containing 0.5×TBE (1×TBE=0.089 M Tris-borate, 0.089 M boric acid, and 0.002 M EDTA). To analyze the effect of RXRα or the nuclear proteins on receptor DNA binding activity, RXRα or the cell extracts were preincubated with receptor protein at room temperature for 10 minutes before performing the DNA binding assay. […]

TRβ = molecular target: T1, TRβ (UniProt P10828 P10828:1-461); test: EMSA; details: label: 32P
T1 sequence: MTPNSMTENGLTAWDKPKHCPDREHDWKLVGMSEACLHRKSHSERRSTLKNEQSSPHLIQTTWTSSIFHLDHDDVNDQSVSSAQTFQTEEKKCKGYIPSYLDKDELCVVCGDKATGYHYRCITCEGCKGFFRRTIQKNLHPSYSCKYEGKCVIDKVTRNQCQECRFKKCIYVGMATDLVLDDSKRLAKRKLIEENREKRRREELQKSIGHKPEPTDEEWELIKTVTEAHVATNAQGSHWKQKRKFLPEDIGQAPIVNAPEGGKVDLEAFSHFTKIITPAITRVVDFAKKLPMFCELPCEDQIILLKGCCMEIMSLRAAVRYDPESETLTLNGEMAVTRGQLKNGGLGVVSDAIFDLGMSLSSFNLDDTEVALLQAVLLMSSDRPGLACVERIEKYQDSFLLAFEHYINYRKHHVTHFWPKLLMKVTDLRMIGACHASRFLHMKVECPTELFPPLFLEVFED
Description: as §1
(§3) In vitro translated receptor protein (1 to 5 μl depending on the translation efficiency) was incubated with the ^32P-labeled oligonucleotides in a 20-μl reaction mixture containing 10 mM hepes buffer, pH 7.9, 50 mM KCl, 1 mM DTT, 2.5 mM MgCl, 10% glycerol, and 1 μg of poly(dI-dC) at 25° C. for 20 minutes. In general, relative low receptor concentration was used to obtain the clear effect of heterodimer formation. The reaction mixture was then loaded on a 5% nondenaturing ployacrylamide gel containing 0.5×TBE (1×TBE=0.089 M Tris-borate, 0.089 M boric acid, and 0.002 M EDTA). To analyze the effect of RXRα or the nuclear proteins on receptor DNA binding activity, RXRα or the cell extracts were preincubated with receptor protein at room temperature for 10 minutes before performing the DNA binding assay. When antibody was used, 1 μl of the antiserum was incubated with the specific translation products at room temperature for 45 minutes before performing the experiments described above.

RARβ/RXRα heterodimer = RARβ/RXRα heterodimer (UniProt P10826-2;P19793 P10826-2:1-448,P19793:1-462); test: EMSA; details: label: 32P
Sequence of RARβ/RXRα heterodimer (P10826 other isoform, or with tags, fused parts or gaps, chain 1 of 2): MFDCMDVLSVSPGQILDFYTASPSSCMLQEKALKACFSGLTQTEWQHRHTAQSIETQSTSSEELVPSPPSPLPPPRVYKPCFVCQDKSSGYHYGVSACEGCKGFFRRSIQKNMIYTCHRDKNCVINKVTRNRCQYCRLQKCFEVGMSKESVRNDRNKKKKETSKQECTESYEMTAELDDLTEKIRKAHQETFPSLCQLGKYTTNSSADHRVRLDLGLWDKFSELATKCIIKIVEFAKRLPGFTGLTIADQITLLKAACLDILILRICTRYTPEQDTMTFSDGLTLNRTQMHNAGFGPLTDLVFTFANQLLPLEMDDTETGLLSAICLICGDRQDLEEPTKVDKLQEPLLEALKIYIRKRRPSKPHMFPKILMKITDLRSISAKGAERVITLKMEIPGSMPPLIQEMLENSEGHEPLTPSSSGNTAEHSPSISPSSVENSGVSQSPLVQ
Sequence of RARβ/RXRα heterodimer (P19793 whole entry, chain 2 of 2): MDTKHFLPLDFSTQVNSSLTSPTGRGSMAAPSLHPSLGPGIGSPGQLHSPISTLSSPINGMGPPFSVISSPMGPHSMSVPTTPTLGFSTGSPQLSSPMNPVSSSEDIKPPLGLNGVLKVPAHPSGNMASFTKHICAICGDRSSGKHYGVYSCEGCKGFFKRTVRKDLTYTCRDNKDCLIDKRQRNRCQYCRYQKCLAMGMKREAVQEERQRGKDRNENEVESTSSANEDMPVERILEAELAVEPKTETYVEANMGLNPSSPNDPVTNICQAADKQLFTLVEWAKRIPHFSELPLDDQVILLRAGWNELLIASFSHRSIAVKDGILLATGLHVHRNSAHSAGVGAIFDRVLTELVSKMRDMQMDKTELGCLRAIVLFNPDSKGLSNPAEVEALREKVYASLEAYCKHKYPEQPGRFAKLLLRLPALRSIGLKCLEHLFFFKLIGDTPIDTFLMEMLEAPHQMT
Description: as §1, §3

RARα/RXRα heterodimer = RARα/RXRα heterodimer (Homo sapiens, UniProt P10276;P19793 P10276:1-462,P19793:1-462); test: EMSA; details: label: 32P
Sequence of RARα/RXRα heterodimer (P10276 whole entry, chain 1 of 2): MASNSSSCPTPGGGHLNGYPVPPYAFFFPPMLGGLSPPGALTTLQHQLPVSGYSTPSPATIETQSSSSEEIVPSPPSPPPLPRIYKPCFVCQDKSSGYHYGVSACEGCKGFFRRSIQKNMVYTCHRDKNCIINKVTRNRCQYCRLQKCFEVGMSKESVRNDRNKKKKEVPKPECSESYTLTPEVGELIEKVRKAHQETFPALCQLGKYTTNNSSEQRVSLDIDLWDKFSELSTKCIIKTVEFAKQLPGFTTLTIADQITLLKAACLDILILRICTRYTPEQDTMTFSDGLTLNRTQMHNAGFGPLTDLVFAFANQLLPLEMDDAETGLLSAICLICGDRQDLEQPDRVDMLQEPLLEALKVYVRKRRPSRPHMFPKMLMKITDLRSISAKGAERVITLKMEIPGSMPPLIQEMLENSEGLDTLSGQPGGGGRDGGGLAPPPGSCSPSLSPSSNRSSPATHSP
Sequence of RARα/RXRα heterodimer (P19793 whole entry, chain 2 of 2): as the sequence (P19793 whole entry, chain 2 of 2) above
Description: as §1, §3

RARγ/RXRα heterodimer = RARγ/RXRα heterodimer (UniProt P13631;P19793 P13631:1-454,P19793:1-462); test: EMSA; details: label: 32P
Sequence of RARγ/RXRα heterodimer (P13631 whole entry, chain 1 of 2): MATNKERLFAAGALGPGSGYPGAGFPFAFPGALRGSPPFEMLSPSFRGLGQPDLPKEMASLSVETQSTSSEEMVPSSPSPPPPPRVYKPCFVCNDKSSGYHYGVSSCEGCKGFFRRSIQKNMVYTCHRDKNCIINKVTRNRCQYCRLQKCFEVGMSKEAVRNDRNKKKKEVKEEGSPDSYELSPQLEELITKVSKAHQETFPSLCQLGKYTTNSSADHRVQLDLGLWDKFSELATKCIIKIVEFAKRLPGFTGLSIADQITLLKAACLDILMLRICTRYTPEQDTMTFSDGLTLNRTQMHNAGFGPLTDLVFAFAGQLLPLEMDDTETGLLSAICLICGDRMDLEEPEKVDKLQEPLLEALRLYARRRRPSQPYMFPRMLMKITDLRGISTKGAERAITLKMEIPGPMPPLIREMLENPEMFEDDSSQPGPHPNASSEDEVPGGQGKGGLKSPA
Sequence of RARγ/RXRα heterodimer (P19793 whole entry, chain 2 of 2): as the sequence (P19793 whole entry, chain 2 of 2) above
Description: as §1, §3

Flag-TRα = molecular target: T2, Flag-TRα (UniProt P10827-2 P10827-2:1-410); test: EMSA; supershifted by anti-Flag; details: tags: N-terminal Flag; label: 32P
T2 sequence: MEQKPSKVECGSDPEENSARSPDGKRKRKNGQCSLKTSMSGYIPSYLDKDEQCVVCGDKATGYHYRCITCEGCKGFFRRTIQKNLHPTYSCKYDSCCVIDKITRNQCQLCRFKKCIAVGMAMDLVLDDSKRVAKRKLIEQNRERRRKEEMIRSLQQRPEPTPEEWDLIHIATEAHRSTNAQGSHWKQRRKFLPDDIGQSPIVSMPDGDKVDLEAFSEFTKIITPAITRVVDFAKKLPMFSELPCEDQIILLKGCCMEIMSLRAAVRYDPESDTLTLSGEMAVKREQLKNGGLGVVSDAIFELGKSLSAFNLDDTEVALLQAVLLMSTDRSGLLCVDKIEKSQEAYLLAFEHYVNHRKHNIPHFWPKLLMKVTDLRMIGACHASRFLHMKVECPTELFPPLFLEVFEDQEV
Description: (b) Effect of anti-Flag-TRα antibody on binding of the slow migrating complex. In vitro synthesized Flag-TRα (F-TRα) protein was incubated with in vitro synthesized RXRα protein in the presence or absence of anti-Flag antibody. The effect of antibody on DNA binding of the slow migrating complex was analyzed as described in FIG. 2a. For control, the receptor mixture was also incubated with preimmune serum (NI). The effect of anti-Flag antibody on DNA binding of Flag-RXRα, RXRα, Flag-TRα, and TRα was also analyzed. For comparison, anti-Flag antibody/Flag-RXRα-TRα interaction was run on the same gel (lanes 7–10).
In vitro translated receptor protein (1 to 5 μl depending on the translation efficiency) was incubated with the ^32P-labeled oligonucleotides in a 20-μl reaction mixture containing 10 mM hepes buffer, pH 7.9, 50 mM KCl, 1 mM DTT, 2.5 mM MgCl, 10% glycerol, and 1 μg of poly(dI-dC) at 25° C. for 20 minutes. In general, relative low receptor concentration was used to obtain the clear effect of heterodimer formation. The reaction mixture was then loaded on a 5% nondenaturing ployacrylamide gel containing 0.5×TBE (1×TBE=0.089 M Tris-borate, 0.089 M boric acid, and 0.002 M EDTA). […]

TRα/RXRα heterodimer = TRα/RXRα heterodimer (UniProt P10827-2;P19793 P10827-2:1-410,P19793:1-462); test: EMSA; at least an order of magnitude more effective than either alone; T3 or RA no clear effect; details: label: 32P
Sequence of TRα/RXRα heterodimer (P19793 whole entry, one chain of several): as the sequence (P19793 whole entry, chain 2 of 2) above
Description: as §1, §2

TRαm2 = molecular target: T3, TRαm2 (UniProt P10827-2 P10827-2:1-213, C-terminal deletion of 197 aa); test: EMSA; several complexes; details: label: 32P
T3 sequence: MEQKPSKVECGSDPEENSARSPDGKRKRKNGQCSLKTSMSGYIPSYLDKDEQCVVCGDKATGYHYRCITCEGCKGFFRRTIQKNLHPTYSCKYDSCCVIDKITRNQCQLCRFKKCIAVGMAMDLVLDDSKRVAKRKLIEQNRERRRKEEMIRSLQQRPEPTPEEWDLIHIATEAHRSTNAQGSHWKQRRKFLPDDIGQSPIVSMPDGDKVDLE
Description: as §3

TRαm3 = molecular target: T4, TRαm3 (UniProt P10827-2 P10827-2:1-167, C-terminal deletion of 243 aa); test: EMSA; several complexes; details: label: 32P
T4 sequence: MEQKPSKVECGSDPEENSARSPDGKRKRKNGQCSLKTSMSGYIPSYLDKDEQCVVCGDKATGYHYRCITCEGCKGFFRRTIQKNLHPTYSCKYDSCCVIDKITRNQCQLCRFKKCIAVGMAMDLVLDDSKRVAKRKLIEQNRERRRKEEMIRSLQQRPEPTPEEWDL
Description: as §3

Measured: binding result

Sequence of TRβ/RXRα heterodimer (P19793 whole entry, chain 2 of 2, one chain of several): as the sequence (P19793 whole entry, chain 2 of 2) above

B1: palindromic TRE (dsDNA)
DNA 1: GATCTCAGGTCATGACCTGAGATC
DNA 2: GATCTCAGGTCATGACCTGAGATC
binds: all assays above
